Read-outs that look alike come from different tables or passages of the source.
B1: MXAN_3118, orphan MbtH-like protein (purified, tag cleaved) (natural protein, Myxococcus xanthus DK1622, UniProt Q1D7Q2 1-71, looked up)
chain: MTDEREDTTVYKVVVNHEEQYSIWPADRENALGWKDAGKQGLKAECLEYIKEVWTDMRPLSLRKKMEELKS
B2: MbtH, MbtH-like protein of mycobactin biosynthesis (purified, tag cleaved) (natural protein)
chain: MSTNPFDDDNGAFFVLVNDEDQHSLWPVFADIPAGWRVVHGEASRAACLDYVEKNWTDLRPKSLRDAMVED
B3: BSU31959, MbtH-like protein of corynebactin biosynthesis (purified, tag cleaved) (natural protein, Bacillus subtilis strain 168, UniProt C0H3Q6 1-69, looked up)
chain: MANPFENADGTYLVLVNEEGQYSLWPGFIDVPSGWTVVHEQKGREACLDYIQSHWSDMRPNSLKTVENV
B4: CmnN, MbtH-like protein of capreomycin biosynthesis (purified, tag cleaved) (natural protein, Saccharothrix mutabilis subsp. capreolus, UniProt A6YEI5 1-62, looked up)
chain: MDTYLVVVNHEEQYSVWPADRPLPAGWRAEGTSGDKEQCLAHIETVWTDMRPLSVRRRAEAV

Key:
Assay in all cases: ATP/PPi exchange rate against MLP concentration
[1] = molecular target: EntF, enterobactin nonribosomal peptide synthetase (E. coli) (UniProt P11454)
[2] = molecular target: T1, EntF, enterobactin nonribosomal peptide synthetase (E. coli, UniProt P11454 1-1293)
[3] = molecular target: T1, EntF, enterobactin nonribosomal peptide …; remark: listed apart in the source

T1 sequence (P11454 whole entry): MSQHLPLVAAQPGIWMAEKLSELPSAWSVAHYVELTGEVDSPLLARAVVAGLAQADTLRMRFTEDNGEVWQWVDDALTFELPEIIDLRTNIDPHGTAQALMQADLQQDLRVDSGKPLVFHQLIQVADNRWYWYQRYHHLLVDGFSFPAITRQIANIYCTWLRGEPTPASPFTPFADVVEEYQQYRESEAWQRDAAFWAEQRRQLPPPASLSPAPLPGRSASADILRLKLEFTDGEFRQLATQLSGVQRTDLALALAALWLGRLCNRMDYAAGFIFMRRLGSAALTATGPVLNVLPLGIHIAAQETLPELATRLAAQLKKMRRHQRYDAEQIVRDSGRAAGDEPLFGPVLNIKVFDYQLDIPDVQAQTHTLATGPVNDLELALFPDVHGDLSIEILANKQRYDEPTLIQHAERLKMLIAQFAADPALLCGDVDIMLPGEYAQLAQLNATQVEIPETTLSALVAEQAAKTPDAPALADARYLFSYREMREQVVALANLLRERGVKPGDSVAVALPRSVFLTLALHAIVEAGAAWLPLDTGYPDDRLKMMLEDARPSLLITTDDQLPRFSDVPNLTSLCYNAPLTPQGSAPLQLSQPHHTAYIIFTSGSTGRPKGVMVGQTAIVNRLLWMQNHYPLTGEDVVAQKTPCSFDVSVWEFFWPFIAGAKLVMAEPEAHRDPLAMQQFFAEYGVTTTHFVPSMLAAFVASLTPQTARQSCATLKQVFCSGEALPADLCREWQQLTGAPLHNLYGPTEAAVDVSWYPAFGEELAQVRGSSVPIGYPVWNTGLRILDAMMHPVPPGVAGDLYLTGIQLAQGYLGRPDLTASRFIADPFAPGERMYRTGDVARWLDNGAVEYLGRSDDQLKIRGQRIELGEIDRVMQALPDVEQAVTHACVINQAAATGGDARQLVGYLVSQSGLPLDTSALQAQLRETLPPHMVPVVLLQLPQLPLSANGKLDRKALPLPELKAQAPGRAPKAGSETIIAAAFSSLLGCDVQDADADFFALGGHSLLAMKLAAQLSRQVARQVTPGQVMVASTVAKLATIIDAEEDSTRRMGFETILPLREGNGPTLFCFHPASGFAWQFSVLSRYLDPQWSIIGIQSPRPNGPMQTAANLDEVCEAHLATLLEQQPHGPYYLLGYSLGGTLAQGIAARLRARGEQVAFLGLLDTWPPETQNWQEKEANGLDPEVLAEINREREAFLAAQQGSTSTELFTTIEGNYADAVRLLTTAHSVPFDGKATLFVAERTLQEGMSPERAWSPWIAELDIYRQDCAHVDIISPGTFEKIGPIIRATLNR
Chain of EntF, enterobactin nonribosomal peptide synthetase (E. coli) (P11454 whole entry): as above

Row | Molecule | Kd [2] [nM] | further results
1 | VioN, MbtH-like protein of viomycin biosynthesis (purified, tag cleaved) (natural protein) |  | Kd [1]: 200 nM
2 | B1 | 166 ± 29 | 
3 | B2 |  | Kd [3]: 54.6 ± 8 nM
4 | B3 | 310 ± 69 | 
5 | B4 | 150 ± 7 | 

Reference: publication PMC5902190 (Biochemistry, 2017)
